In article PMC11784390, “Conformational changes in and translocation of small proteins: insights into the ejection mechanism of podophages” (Journal of Virology, 2024):

Experiments:
[1] = biological target: T1, core protein gp16 (bacteriophage T7, UniProt P03726 1-1318); experiment: cryo-EM structure; mature T7 virions, in situ; entire particle asymmetric 6.1 Å; local reconstructions of core complex 3 Å (four-fold), portal 2.5 Å (twelve-fold), portal–tail complex 2.7 Å (six-fold); details: both partners purified
T1 construct: core protein gp16 of bacteriophage T7, as it stands in the mature virion; Four-fold ring in the core of mature T7; source: T7 virions propagated in E. coli, purified (PEG precipitation, CsCl ultracentrifugation)
T1 sequence (looked up): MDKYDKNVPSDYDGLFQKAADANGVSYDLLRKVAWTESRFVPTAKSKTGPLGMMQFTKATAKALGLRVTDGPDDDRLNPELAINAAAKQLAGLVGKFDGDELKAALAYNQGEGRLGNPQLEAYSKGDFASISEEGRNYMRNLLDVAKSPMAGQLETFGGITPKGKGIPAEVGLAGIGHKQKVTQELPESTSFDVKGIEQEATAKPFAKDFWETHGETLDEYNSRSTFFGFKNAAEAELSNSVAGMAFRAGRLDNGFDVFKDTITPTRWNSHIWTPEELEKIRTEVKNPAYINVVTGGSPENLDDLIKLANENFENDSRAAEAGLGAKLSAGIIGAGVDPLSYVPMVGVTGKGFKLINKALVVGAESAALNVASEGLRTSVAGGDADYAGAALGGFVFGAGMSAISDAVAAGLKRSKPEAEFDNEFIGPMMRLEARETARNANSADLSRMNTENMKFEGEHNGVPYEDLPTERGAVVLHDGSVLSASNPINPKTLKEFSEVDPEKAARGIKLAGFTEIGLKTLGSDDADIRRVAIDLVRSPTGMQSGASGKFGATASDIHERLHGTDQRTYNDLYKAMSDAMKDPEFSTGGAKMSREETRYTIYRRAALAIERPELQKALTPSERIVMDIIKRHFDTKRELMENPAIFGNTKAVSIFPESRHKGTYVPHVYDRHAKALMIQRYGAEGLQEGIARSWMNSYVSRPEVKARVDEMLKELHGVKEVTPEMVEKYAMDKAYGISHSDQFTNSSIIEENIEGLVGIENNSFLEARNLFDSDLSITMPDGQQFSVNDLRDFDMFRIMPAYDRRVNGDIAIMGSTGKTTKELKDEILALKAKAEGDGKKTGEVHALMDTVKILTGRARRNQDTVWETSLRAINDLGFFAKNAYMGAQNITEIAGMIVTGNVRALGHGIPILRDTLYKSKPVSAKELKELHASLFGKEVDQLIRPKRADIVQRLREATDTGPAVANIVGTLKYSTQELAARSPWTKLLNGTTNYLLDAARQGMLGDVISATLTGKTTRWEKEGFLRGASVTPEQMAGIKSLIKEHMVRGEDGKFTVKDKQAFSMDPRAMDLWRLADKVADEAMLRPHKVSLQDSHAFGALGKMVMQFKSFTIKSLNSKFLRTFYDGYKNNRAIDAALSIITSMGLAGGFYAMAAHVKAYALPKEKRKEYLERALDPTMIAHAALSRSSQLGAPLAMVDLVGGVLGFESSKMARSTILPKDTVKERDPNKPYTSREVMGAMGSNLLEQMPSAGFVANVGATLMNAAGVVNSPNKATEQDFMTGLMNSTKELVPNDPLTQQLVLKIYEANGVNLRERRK

[2] = biological target: the molecule itself; experiment: as above
[3] = biological target: T2, portal protein gp8 (bacteriophage T7, UniProt P03728 1-536); experiment: cryo-EM structure; DNA-ejected T7: purified mature T7 incubated with rough LPS (250 µg/mL) at 37°C for 3 h; entire particle asymmetric 8.2 Å; portal–tail complex 3.5 Å (six-fold); details: both partners purified
T2 construct: portal protein gp8 of bacteriophage T7, as it stands in the virion; Native virion protein; also called dodecameric portal; source: T7 virions propagated in E. coli, purified (PEG precipitation, CsCl ultracentrifugation); copies: 12
T2 sequence (looked up): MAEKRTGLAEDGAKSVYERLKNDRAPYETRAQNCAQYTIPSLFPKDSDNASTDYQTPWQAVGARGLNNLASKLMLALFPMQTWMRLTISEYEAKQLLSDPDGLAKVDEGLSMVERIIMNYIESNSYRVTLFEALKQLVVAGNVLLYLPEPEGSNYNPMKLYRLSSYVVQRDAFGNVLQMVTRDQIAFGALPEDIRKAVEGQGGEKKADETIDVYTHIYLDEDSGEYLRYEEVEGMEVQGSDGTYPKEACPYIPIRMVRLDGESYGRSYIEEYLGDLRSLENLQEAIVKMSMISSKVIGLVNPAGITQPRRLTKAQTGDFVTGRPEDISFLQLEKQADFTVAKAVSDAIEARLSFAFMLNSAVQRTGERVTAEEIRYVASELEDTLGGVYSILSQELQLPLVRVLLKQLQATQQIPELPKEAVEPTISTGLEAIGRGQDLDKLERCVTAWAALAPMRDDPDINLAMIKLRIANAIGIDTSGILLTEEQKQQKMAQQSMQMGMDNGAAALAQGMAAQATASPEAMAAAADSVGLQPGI

[4] = biological target: T3, nozzle protein gp12 (bacteriophage T7, UniProt P03747 1-794); experiment: as above; details: both partners purified
T3 construct: nozzle protein gp12 of bacteriophage T7, as it stands in the virion; Native virion protein; also called tail nozzle; source: T7 virions propagated in E. coli, purified (PEG precipitation, CsCl ultracentrifugation)
T3 sequence (looked up): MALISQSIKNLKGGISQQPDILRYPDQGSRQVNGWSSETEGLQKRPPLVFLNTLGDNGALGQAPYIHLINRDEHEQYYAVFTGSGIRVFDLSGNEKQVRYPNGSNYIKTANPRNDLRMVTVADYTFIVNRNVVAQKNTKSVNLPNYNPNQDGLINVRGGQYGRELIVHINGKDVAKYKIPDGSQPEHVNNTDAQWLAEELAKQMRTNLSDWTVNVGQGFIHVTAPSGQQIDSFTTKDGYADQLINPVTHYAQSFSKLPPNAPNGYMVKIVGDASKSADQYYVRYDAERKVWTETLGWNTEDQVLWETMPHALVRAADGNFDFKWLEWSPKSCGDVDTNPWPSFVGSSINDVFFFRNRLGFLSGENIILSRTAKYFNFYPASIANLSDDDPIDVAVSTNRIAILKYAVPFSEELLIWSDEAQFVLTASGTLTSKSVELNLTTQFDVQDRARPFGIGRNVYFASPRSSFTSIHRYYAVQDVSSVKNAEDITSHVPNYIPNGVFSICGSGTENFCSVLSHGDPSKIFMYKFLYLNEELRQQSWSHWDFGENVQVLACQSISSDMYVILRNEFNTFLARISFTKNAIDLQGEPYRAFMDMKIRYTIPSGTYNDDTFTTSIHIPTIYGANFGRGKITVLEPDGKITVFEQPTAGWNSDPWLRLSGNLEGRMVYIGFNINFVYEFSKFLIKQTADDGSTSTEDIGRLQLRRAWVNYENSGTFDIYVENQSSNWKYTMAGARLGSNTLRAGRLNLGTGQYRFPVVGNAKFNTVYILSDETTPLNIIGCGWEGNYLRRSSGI

B1: core protein gp15 (natural protein, bacteriophage T7, UniProt P03725 1-747, looked up)
chain: MSKIESALQAAQPGLSRLRGGAGGMGYRAATTQAEQPRSSLLDTIGRFAKAGADMYTAKEQRARDLADERSNEIIRKLTPEQRREALNNGTLLYQDDPYAMEALRVKTGRNAAYLVDDDVMQKIKEGVFRTREEMEEYRHSRLQEGAKVYAEQFGIDPEDVDYQRGFNGDITERNISLYGAHDNFLSQQAQKGAIMNSRVELNGVLQDPDMLRRPDSADFFEKYIDNGLVTGAIPSDAQATQLISQAFSDASSRAGGADFLMRVGDKKVTLNGATTTYRELIGEEQWNALMVTAQRSQFETDAKLNEQYRLKINSALNQEDPRTAWEMLQGIKAELDKVQPDEQMTPQREWLISAQEQVQNQMNAWTKAQAKALDDSMKSMNKLDVIDKQFQKRINGEWVSTDFKDMPVNENTGEFKHSDMVNYANKKLAEIDSMDIPDGAKDAMKLKYLQADSKDGAFRTAIGTMVTDAGQEWSAAVINGKLPERTPAMDALRRIRNADPQLIAALYPDQAELFLTMDMMDKQGIDPQVILDADRLTVKRSKEQRFEDDKAFESALNASKAPEIARMPASLRESARKIYDSVKYRSGNESMAMEQMTKFLKESTYTFTGDDVDGDTVGVIPKNMMQVNSDPKSWEQGRDILEEARKGIIASNPWITNKQLTMYSQGDSIYLMDTTGQVRVRYDKELLSKVWSENQKKLEEKAREKALADVNKRAPIVAATKAREAAAKRVREKRKQTPKFIYGRKE
notes: core protein gp15 of bacteriophage T7, as it stands in the mature virion; Eight-fold ring in the core of mature T7; source: T7 virions propagated in E. coli, purified (PEG precipitation, CsCl ultracentrifugation)
B1 was tested, and the binding result [1] was “binds” and the “stoichiometry N” value [2] was 8.

B2: adaptor protein gp11 (natural protein, bacteriophage T7, UniProt P03746 1-196, looked up)
chain: MRSYDMNVETAAELSAVNDILASIGEPPVSTLEGDANADAANARRILNKINRQIQSRGWTFNIEEGITLLPDVYSNLIVYSDDYLSLMSTSGQSIYVNRGGYVYDRTSQSDRFDSGITVNIIRLRDYDEMPECFRYWIVTKASRQFNNRFFGAPEVEGVLQEEEDEARRLCMEYEMDYGGYNMLDGDAFTSGLLTR
notes: adaptor protein gp11 of bacteriophage T7, as it stands in the virion; Native virion protein; source: T7 virions propagated in E. coli, purified (PEG precipitation, CsCl ultracentrifugation); copies: 12
In the case of B2, the binding result [3] is reported as “binds”, the binding result [4] is reported as “binds” and the “stoichiometry N” value [2] is reported as 12.
